Source: US20120276124A1 (Sanofi, published 2012)

B1: hu2H11R35R74-PEG4-NHAc-DM4 (antibody, human IgG1, kappa, V domains shown)
VH: QVQLVQSGAEVVKPGASVKISCKASGYTFTAYYMHWVKQSPVQSLEWIGLVNPYNGFSSYNQKFQGKASLTVDRSSSTAYMELHSLTSEDSAVYYCAREFYGYRYFDVWGQGTAVTVSS
VL: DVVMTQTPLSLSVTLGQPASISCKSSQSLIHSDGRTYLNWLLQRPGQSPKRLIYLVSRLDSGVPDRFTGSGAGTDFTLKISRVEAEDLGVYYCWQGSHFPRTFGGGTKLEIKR
modifications: may carry L-DM4 through the AcNH-PEG4 linker; sites not stated; maytansinoid L-DM4 attached through the AcNH-PEG4 linker (NHS activated ester; sites not stated); average DAR (UV) 5.9 for the whole antibody
B2: hu2H11R35R74-PEG4-Allyl-DM4 (antibody, human IgG1, kappa, V domains shown)
VH: B1 VH
VL: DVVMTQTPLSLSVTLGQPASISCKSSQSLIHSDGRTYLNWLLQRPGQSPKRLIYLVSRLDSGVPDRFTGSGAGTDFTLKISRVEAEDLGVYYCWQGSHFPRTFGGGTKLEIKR
modifications: may carry L-DM4 through the Allyl-PEG4 linker; sites not stated; maytansinoid L-DM4 attached through the Allyl-PEG4 linker (NHS activated ester; sites not stated); average DAR (UV) 5.3 for the whole antibody
B3: hu2H11R35R74-PEG8-NHAc-DM4 (antibody, human IgG1, kappa, V domains shown)
VH: B1 VH
VL: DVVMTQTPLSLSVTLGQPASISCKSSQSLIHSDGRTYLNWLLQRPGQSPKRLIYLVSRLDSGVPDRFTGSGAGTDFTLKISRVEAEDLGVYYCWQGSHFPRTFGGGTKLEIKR
modifications: may carry L-DM4 through the AcNH-PEG8 linker; sites not stated; maytansinoid L-DM4 attached through the AcNH-PEG8 linker (NHS activated ester; sites not stated); average DAR (UV) 4.9 for the whole antibody
B4: hu2H11R35R74-PEG4-NMeAc-DM4 (antibody, human IgG1, kappa, V domains shown)
VH: B1 VH
VL: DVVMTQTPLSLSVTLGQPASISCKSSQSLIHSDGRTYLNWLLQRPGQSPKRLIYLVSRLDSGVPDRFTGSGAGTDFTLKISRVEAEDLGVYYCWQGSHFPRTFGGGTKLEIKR
modifications: may carry L-DM4 through the AcNMe-PEG4 linker; sites not stated; maytansinoid L-DM4 attached through the AcNMe-PEG4 linker (NHS activated ester; sites not stated); average DAR (UV) 5.4 for the whole antibody

target: EphA2 receptor (UniProt P29317 24-976, limits assumed); assay: cell-based or functional assay
Sequence (P29317 24-976 limits assumed): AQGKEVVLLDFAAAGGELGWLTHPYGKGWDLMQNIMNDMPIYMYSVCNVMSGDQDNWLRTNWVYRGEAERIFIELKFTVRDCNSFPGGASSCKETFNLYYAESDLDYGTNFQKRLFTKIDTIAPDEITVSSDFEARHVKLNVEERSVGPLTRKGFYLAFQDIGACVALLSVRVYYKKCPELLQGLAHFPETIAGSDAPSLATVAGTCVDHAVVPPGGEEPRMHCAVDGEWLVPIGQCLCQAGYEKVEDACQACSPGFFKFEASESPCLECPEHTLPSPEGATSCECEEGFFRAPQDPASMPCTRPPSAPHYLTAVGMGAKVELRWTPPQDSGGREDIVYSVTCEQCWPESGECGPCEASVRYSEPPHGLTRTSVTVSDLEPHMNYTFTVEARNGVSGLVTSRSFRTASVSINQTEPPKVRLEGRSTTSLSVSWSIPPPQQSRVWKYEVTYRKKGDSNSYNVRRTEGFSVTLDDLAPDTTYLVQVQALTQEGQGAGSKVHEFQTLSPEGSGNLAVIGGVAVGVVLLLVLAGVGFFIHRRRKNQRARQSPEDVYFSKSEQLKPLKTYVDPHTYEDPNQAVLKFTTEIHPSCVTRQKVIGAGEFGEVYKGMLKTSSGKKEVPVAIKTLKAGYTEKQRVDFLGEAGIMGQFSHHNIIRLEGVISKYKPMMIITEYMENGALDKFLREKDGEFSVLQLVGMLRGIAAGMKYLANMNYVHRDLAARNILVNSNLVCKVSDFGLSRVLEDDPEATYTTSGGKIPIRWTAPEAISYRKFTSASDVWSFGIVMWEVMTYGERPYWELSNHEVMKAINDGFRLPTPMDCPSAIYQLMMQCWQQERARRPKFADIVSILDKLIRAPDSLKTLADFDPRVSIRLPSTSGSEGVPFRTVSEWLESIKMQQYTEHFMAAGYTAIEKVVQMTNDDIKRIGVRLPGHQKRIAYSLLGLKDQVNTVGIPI

| Binder | IC50 [pM], +naked hu2H11R35R74 (1 uM); inhibition of growth of MDA-MB231 cells (14C-thymidine uptake) [pM] | IC50 [pM], conjugate alone; inhibition of growth of MDA-MB231 cells (14C-thymidine uptake) [pM] | ratio (IC50 +naked hu2H11R35R74 / conjugate alone) |
| --- | --- | --- | --- |
| B1 | 29700 | 147 | 202 |
| B2 | 7820 | 161 | 49 |
| B3 | 25000 | 400 | 62 |
| B4 | 36400 | 217 | 168 |
